Tests used:
[1] = molecular target: T1, TNF-R2 (a protein having the amino acid sequence, Accession No. M55994 registered at GENBANK) (UniProt P20333 23-257, limits assumed); test: SPR (BIACORE 2000), receptor on sensor tip; grade 1 = 0.001 to 0.1 time that of recombinant TNF-α
T1 construct: also called TNF receptor with 75 kilo daltons
T1 sequence (looked up): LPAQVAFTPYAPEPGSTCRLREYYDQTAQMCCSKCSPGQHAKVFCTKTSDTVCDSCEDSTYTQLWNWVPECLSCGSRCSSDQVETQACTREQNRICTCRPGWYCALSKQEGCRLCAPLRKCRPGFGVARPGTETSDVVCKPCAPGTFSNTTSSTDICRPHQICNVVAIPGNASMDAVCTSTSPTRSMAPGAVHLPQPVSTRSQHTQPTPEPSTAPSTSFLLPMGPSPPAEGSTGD
Excerpt: (§1) Using the above detector based on surface plasmon resonance effect again, the resulting clones binding to TNF-R1 (or TNF-R2) were subjected to the remaining sensor tip conjugated with TNF-R2 (or TNF-R1) to measure receptor binding affinity and select clones having a variation of receptor binding affinity. […] The resulting DNAs were digested with restrict enzymes NdeI and BamHI to obtain DNA fragments. The resulting DNA fragments were introduced into a plasmid vector containing T7 promoter region, T7 terminator region, ampicillin resistant gene region and ColE1/Ori region (product name “pET-3a”, manufactured by “Novagen®” (EMD Biosciences, Inc.)) at the position of the above restriction sites. The resulting plasmid was introduced into E. coli BL21DE3 strain to obtain a transformed E. coli for producing the TNF mutant proteins. The obtained transformed E. coli was cultured according to usual method and centrifuged to collect E. coli pellet. The resulting pellet was washed twice with TES buffer (pH 8.0) (20 mM Tris-HCl, 10 mM ethylene diamine tetraacetic acid and 0.5 M sodium chloride) and admixed with TES buffer (pH 8.0) containing 0.2 mg/ml lysozyme. The resulting suspension was sonicated according to usual manner, and centrifuged to collect a precipitate containing the produced TNF mutant protein. The resulting precipitate was treated three times in a manner of admixing with TES buffer containing 1 (w/w) % Triton X-100, removed from supernatant by centrifuging, admixed with 50 mM Tris-HCl (pH 7.0) containing 8 M guanidine hydrochloride and 50 mM dithiothreitol, with stirring for 16 hours at ambient temperature under shielded condition, and centrifuged to collect a supernatant. The resulting supernatant was gently admixed with 100 time volumes of a aqueous solution containing 1 M Tris, 0.9 (w/v) % sodium chloride, 0.4 M L-arginine chloride, 2.5 mM reduced glutathione, 0.5 mM oxidized glutathione and 0.05 (w/v) % Tween 20, and kept at 4° C. for 16 hours.

[2] = molecular target: T2, TNF-R1 (a protein having the amino acid sequence, Accession No. M58286 registered at GENBANK) (UniProt P19438 30-211, limits assumed); test: SPR (BIACORE 2000), receptor on sensor tip; grade 3 = 0.5 to 2 times that of recombinant TNF-α
T2 construct: also called TNF receptor having a molecular weight of 55 kilo daltons
T2 sequence (looked up): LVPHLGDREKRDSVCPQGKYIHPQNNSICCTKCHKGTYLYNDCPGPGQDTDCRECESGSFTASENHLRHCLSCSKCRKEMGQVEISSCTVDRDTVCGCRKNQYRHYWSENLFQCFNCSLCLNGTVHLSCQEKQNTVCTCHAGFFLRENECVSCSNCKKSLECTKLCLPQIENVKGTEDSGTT
Excerpt: as §1

[3] = molecular target: T3, TNF-R1 on L-M cells (mouse, UniProt P25118 30-454); test: cell-based or functional assay
T3 sequence (looked up): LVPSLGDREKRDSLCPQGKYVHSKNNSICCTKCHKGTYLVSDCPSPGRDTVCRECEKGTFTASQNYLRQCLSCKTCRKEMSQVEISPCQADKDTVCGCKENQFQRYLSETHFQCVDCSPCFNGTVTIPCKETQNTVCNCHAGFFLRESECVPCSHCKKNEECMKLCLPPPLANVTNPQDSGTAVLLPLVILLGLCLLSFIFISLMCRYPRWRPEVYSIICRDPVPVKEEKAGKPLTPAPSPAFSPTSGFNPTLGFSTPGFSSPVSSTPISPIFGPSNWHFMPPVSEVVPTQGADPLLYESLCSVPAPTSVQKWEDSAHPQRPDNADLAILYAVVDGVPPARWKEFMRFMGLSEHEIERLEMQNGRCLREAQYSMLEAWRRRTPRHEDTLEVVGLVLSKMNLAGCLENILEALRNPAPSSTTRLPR

[4] = molecular target: T4, TNF-R1 on HEp-2 cells (human, UniProt P19438 30-455); test: cell-based or functional assay
T4 sequence (looked up): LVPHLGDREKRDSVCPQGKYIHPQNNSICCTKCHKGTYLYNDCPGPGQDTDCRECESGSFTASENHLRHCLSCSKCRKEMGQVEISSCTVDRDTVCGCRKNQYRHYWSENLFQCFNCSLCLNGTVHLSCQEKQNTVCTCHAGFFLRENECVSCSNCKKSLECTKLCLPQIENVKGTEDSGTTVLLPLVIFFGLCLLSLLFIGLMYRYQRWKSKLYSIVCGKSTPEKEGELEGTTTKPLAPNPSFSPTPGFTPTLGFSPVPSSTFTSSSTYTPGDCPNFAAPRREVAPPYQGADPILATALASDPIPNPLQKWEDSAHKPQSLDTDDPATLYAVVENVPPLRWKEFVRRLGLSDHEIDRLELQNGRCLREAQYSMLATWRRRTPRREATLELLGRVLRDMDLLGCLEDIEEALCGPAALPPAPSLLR

Binder | binding affinity relative to recombinant TNF-α [1] | binding affinity relative to recombinant TNF-α [2] | Viability (%) of L-M cells, 10 ng/ml TNF-α + 1,000 ng/ml TNF antagonist (17 without antagonist) [3] | Viability (%) of L-M cells, 10 ng/ml TNF-α + 10,000 ng/ml TNF antagonist (17 without antagonist) [3] | Viability (%) of L-M cells, 10 ng/ml TNF-α + 100,000 ng/ml TNF antagonist (17 without antagonist) [3] | Viability (%) of L-M cells, 10 ng/ml TNF-α + 500,000 ng/ml TNF antagonist (17 without antagonist) [3] | Viability (%) of HEp-2 cells, 10 ng/ml TNF-α + 1,000 ng/ml TNF antagonist (9 without antagonist) [4] | Viability (%) of HEp-2 cells, 10 ng/ml TNF-α + 10,000 ng/ml TNF antagonist (9 without antagonist) [4] | Viability (%) of HEp-2 cells, 10 ng/ml TNF-α + 100,000 ng/ml TNF antagonist (9 without antagonist) [4] | Viability (%) of HEp-2 cells, 10 ng/ml TNF-α + 500,000 ng/ml TNF antagonist (9 without antagonist) [4]
TNF mutant protein of clone No. 6 (ligand, Mutant of lysine-replaced TNF, made in E. coli; stop codon at position 147) VRSSSRTPSDMPVAHVVANPQAEGQLQWSNRYANALLANGVELRDNQLVVPSEGLYLIYSQVLFSGQGCPSTHVLLTHTISRIAVSYQTPVNLLSAIRSPCQRETPEGAEANPWYEPIYLGGVFQLEPGDRLSAEINRPDYLDFSM | 0.001 to 0.1 fold | 0.5 to 2 fold |  |  |  |  |  |  |  | 
TNF mutant protein of clone No. 1 (ligand, Mutant of lysine-replaced TNF, made in E. coli) VRSSSRTPSDMPVAHVVANPQAEGQLQWQNRWANALLANGVELRDNQLVVPSEGLYLIYSQVLFSGQGCPSTHVLLTHTISRIAVSYQTPVNLLSAIRSPCQRETPEGAEANPWYEPIYLGGVFQLEPGDRLSAEINRPDYLDFAESGQVYFGIIAL | 0.001 to 0.1 fold | 0.5 to 2 fold |  |  |  |  |  |  |  | 
TNF mutant protein of clone No. 22 (ligand, Mutant of lysine-replaced TNF, made in E. coli) VRSSSRTPSDMPVAHVVANPQAEGQLQWLNRRANALLANGVELRDNQLVVPSEGLYLIYSQVLFSGQGCPSTHVLLTHTISRISRVYTAPVNLLSAIRSPCQRETPEGAEANPWYEPIYLGGVFQLEPGDRLSAEINRPDYLDFAESGQVYFGIIAL | 0.001 to 0.1 fold | 0.5 to 2 fold |  |  |  |  |  |  |  | 
TNF mutant protein of clone No. 37 (ligand, Mutant of lysine-replaced TNF, made in E. coli; also called TNF antagonist of clone No. 37) VRSSSRTPSDMPVAHVVANPQAEGQLQWLNRRANALLANGVELRDNQLVVPSEGLYLIYSQVLFSGQGCPSTHVLLTHTISRISTTHNQPVNLLSAIRSPCQRETPEGAEANPWYEPIYLGGVFQLEPGDRLSAEINRPDYLDFAESGQVYFGIIAL | 0.001 to 0.1 fold | 0.5 to 2 fold | 42% | 51% | 59% | 72% | 11% | 18% | 43% | 75%
TNF mutant protein of clone No. 36 (ligand, Mutant of lysine-replaced TNF, made in E. coli; also called TNF antagonist of clone No. 36) VRSSSRTPSDMPVAHVVANPQAEGQLQWLNRRANALLANGVELRDNQLVVPSEGLYLIYSQVLFSGQGCPSTHVLLTHTISRIAPGYSHPVNLLSAIRSPCQRETPEGAEANPWYEPIYLGGVFQLEPGDRLSAEINRPDYLDFAESGQVYFGIIAL | 0.001 to 0.1 fold | 0.5 to 2 fold | 43% | 54% | 63% | 59% | 12% | 13% | 38% | 74%
TNF mutant protein of clone No. 28 (ligand, Mutant of lysine-replaced TNF, made in E. coli) VRSSSRTPSDMPVAHVVANPQAEGQLQWLNRRANALLANGVELRDNQLVVPSEGLYLIYSQVLFSGQGCPSTHVLLTHTISRITKSYSKPVNLLSAIRSPCQRETPEGAEANPWYEPIYLGGVFQLEPGDRLSAEINRPDYLDFAESGQVYFGIIAL | 0.001 to 0.1 fold | 0.5 to 2 fold |  |  |  |  |  |  |  | 
TNF mutant protein of clone No. 3 (ligand, Mutant of lysine-replaced TNF, made in E. coli) VRSSSRTPSDMPVAHVVANPQAEGQLQWLNSDANALLANGVELRDNQLVVPSEGLYLIYSQVLFSGQGCPSTHVLLTHTISRIAVSYQTPVNLLSAIRSPCQRETPEGAEANPWYEPIYLGGVFQLEPGDRLSAEINRPDYLDFAARGQVYFGIIAL | 0.001 to 0.1 fold | 0.5 to 2 fold |  |  |  |  |  |  |  | 
TNF mutant protein of clone No. 38 (ligand, Mutant of lysine-replaced TNF, made in E. coli; also called TNF antagonist of clone No. 38) VRSSSRTPSDMPVAHVVANPQAEGQLQWLNRRANALLANGVELRDNQLVVPSEGLYLIYSQVLFSGQGCPSTHVLLTHTISRIGGPYQRPVNLLSAIRSPCQRETPEGAEANPWYEPIYLGGVFQLEPGDRLSAEINRPDYLDFAESGQVYFGIIAL | 0.001 to 0.1 fold | 0.5 to 2 fold | 42% | 47% | 58% | 70% | 11% | 22% | 72% | 95%
TNF mutant protein of clone No. 17 (ligand, Mutant of lysine-replaced TNF, made in E. coli) VRSSSRTPSDMPVAHVVANPQAEGQLQWLNRRANALLANGVELRDNQLVVPSEGLYLIYSQVLFSGQGCPSTHVLLTHTISRISKTYTHPVNLLSAIRSPCQRETPEGAEANPWYEPIYLGGVFQLEPGDRLSAEINRPDYLDFAESGQVYFGIIAL | 0.001 to 0.1 fold | 0.5 to 2 fold |  |  |  |  |  |  |  | 
TNF mutant protein of clone No. 29 (ligand, Mutant of lysine-replaced TNF, made in E. coli) VRSSSRTPSDMPVAHVVANPQAEGQLQWLNRRANALLANGVELRDNQLVVPSEGLYLIYSQVLFSGQGCPSTHVLLTHTISRITEQYSHPVNLLSAIRSPCQRETPEGAEANPWYEPIYLGGVFQLEPGDRLSAEINRPDYLDFAESGQVYFGIIAL | 0.001 to 0.1 fold | 0.5 to 2 fold |  |  |  |  |  |  |  | 

From patent US20100222258A1 (KABUSHIKI KAISHA HAYASHIBARA SEIBUTSU KAGAKU KENKYUJO, published 2010)
